{
  "source": "patent US20060239990A1",
  "about": "“Protein Arginine N-Methyltransferase 2 (PRMT-2)” (priority 2003, published 2006)",
  "molecules": {"B1": {"name": "PRMT2: human PRMT-2 polypeptide, SEQ ID NO:2, expressed from pVR1012 vector with HA-tag (protein, listed as Homo sapiens)", "chain": "MATSGDCPRSESQGEEPAECSEAGLLQEGVQPEEFVAIADYAATDETQLSFLRGEKILILRQTTADWWWGERAGCCGYIPANHVGKHVDEYDPEDTWQDEEYFGSYGTLKLHLEMLADQPRTTKYHSVILQNKESLTDKVILDVGCGTGIISLFCAHYARPRAVYAVEASEMAQHTGQLVLQNGFADIITVYQQKVEDVVLPEKVDVLVSEWMGTCLLFEFMIESILYARDAWLKEDGVIWPTMAALHLVPCSADKDYRSKVLFWDNAYEFNLSALKSLAVKEFFSKPKYNHILKPEDCLSEPCTILQLDMRTVQISDLETLRGELRFDIRKAGTLHGFTAWFSVHFQSLQEGQPPQVLSTGPFHPTTHWKQTLFMMDDPVPVHTGDVVTGSVVLQRNPVWRRHMSVALSWAVTSRQDPTSQKVGEKVFPIWR", "modifications": "HA tag"}},
  "key": {"NF-κB": {"test_system": "NF-κB", "assay": "κB luciferase reporter in MEFs", "type": "cell-based, mouse", "details": "PRMT2−/− MEFs complemented by transfection", "procedure": "Cell culture, transfection, and reporter gene assays. The E1A-transformed, human kidney cell line, 293, and NIH-3T3 cells were maintained in Dulbecco's Modified Eagle Medium (DMEM) supplemented with 10% fetal calf serum and penicillin-streptomycin at 37° C. in 5% carbon dioxide in tissue culture grade Petri dishes. PRMT-2−/− mouse embryo fibroblasts (MEFs) and wild type MEFs were prepared from day 13.5 embryos and maintained in DMEM supplemented with 10% fetal calf serum. MEFs at passage 4 were used in this experiment. Lipofectamine Plus™ reagent (Boehringer Mannheim) was used to transfect both 293 and NIH-3T3 cells according to directions from the manufacturer. […] TNF-α stimulation of cells was done using recombinant TNF-α (200 U/ml) for 12 hours. Transfected cells were harvested at 36 hours, and CAT activity was assayed on 10 to 100 μg of protein from whole cell extracts. CAT assays were performed essentially as described in Leung, K. & Nabel, G. J. Nature 333, 776-778 (1988). […] Luciferase activity was analyzed by Dual-Luciferase Reporter Assay System (Promega).\nTo determine whether similar effects would be observed in non-transformed cell lines with physiological levels of protein, NF-κB inducibility was analyzed in mouse embryonic fibroblasts (MEFs) derived from PRMT2 null mice (T. Y. et al., manuscript in preparation). […]"}, "STAT3": {"test_system": "STAT3", "assay": "STAT3 arginine methylation in transfected HEK293 cells", "type": "cell-based", "details": "24 hr after transfection, α-metR immunoblot", "procedure": "Vascular smooth muscle cells (VSMC) were prepared from the thoracic aorta of 12-week-old-male wild-type and PRMT-2^−/− mice by the explant method. Mouse embryo fibroblasts (MEFs) were prepared from 13.5-day wild-type and PRMT-2^−/− embryos. VSMCs and MEFs were cultured in Dulbecco's modified Eagle's medium (DMEM) containing 10% fetal calf serum (FCS) at 37° C. in a humidified atmosphere of 95% air-5% CO2. The integrity of PRMT-2 expression in the established VSMCs and MEFs lines was confirmed by Western and immunofluorescence analysis (data not shown). Quiescent VSMC (3-5th passages) that had been serum-starved for 48 hr were used in the following experiments. HEK293 cells were also grown in DMEM plus 10% FCS and were transiently transfected with FuGENE6 transfection reagent (Roche Applied Science, Indianapolis, Ind.) according to the manufacture's protocol. For each transfection, 2 μg of expression construct for mouse PRMT-2 and 8 μg for mouse STAT3 were used. After 24-48 hr of transfection, cells were used for the following experiments.\nImmunoprecipitation of STAT3 was performed as follows. […]"}},
  "data": [
    {"molecule": "B1", "values": [
      {"measurement": "NF-κB induction by TNF-α", "setting": "NF-κB", "value": "completely abolished NF-κB induction by TNF-α"},
      {"measurement": "Stat3 methylation", "setting": "STAT3", "value": "endogenous methylated STAT3 was detected"}
    ]}
  ]
}
